Test results: IntAct's records for PubMed 16401726

B1: UV excision repair protein RAD23 (Saccharomyces cerevisiae), P32628 (parent)
chain: MVSLTFKNFKKEKVPLDLEPSNTILETKTKLAQSISCEESQIKLIYSGKVLQDSKTVSECGLKDGDQVVFMVSQKKSTKTKVTEPPIAPESATTPGRENSTEASPSTDASAAPAATAPEGSQPQEEQTATTERTESASTPGFVVGTERNETIERIMEMGYQREEVERALRAAFNNPDRAVEYLLMGIPENLRQPEPQQQTAAAAEQPSTAATTAEQPAEDDLFAQAAQGGNASSGALGTTGGATDAAQGGPPGSIGLTVEDLLSLRQVVSGNPEALAPLLENISARYPQLREHIMANPEVFVSMLLEAVGDNMQDVMEGADDMVEGEDIEVTGEAAAAGLGQGEGEGSFQVDYTPEDDQAISRLCELGFERDLVIQVYFACDKNEEAAANILFSDHAD
partner: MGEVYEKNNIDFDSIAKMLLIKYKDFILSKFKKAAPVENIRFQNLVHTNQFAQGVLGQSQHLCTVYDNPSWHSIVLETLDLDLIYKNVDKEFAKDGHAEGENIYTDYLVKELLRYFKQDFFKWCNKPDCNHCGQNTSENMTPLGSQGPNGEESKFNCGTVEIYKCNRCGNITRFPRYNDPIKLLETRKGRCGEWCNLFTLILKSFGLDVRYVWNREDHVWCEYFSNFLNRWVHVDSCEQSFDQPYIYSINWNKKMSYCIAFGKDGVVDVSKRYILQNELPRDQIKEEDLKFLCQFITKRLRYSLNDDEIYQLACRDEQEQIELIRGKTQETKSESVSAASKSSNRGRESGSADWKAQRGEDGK
B2: UV excision repair protein RAD23 (Saccharomyces cerevisiae), P32628 (parent)
chain: B1 chain
partner: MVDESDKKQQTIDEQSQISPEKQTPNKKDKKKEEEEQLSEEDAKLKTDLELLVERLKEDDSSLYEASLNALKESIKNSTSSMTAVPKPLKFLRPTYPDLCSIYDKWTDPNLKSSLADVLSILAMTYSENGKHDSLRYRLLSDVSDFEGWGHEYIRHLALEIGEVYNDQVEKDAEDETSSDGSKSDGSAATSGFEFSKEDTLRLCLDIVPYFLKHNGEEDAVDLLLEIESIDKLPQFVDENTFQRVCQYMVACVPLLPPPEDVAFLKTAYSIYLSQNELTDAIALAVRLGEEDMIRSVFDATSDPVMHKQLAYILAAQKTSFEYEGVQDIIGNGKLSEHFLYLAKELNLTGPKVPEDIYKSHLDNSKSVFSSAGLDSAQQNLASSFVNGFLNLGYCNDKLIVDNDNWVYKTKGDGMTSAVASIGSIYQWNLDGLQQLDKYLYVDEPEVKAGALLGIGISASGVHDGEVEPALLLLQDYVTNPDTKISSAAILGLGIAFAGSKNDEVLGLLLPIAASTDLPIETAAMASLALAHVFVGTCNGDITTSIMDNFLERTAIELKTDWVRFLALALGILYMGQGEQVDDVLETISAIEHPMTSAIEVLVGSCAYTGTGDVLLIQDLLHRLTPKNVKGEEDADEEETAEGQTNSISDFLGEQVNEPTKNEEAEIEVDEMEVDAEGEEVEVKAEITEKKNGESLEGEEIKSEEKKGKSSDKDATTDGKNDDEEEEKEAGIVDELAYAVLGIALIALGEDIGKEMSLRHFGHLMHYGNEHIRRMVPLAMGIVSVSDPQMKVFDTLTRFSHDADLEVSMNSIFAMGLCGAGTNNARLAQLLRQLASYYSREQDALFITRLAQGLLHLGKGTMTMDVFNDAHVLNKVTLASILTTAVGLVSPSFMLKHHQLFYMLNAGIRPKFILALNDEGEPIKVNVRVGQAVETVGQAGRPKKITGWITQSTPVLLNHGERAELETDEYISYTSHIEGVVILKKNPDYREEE
B3: "Peptide-N(4)-(N-acetyl-beta-glucosaminyl)asparagine amidase" (Saccharomyces cerevisiae), Q02890 (parent)
chain: B1 partner
partner: B1 chain
B4: UV excision repair protein RAD23 (Saccharomyces cerevisiae), P32628 (parent)
chain: B1 chain
partner: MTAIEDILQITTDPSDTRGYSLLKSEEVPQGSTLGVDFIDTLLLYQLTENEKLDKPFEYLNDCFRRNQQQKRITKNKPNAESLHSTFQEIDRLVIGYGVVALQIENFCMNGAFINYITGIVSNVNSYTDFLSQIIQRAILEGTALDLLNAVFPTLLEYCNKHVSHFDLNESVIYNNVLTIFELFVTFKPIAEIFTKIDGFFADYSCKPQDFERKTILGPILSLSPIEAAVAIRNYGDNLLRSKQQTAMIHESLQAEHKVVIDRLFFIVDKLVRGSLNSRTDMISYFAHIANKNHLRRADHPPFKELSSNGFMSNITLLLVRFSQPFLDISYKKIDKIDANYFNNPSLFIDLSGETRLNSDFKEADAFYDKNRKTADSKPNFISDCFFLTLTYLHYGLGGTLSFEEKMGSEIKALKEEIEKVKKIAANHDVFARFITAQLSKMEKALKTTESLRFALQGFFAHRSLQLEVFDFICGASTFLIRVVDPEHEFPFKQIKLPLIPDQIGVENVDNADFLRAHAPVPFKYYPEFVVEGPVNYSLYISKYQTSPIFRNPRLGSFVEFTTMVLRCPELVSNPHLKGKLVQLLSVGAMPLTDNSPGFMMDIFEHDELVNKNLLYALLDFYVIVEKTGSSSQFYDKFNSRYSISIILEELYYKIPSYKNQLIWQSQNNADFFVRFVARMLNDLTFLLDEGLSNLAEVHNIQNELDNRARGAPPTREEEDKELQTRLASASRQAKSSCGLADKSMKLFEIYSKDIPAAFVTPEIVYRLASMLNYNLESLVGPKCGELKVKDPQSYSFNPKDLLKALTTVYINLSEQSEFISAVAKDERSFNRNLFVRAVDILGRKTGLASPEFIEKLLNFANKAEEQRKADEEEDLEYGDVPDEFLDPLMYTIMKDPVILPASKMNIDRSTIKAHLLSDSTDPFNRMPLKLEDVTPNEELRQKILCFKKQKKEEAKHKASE
B5: UV excision repair protein RAD23 (Saccharomyces cerevisiae), P32628 (parent)
chain: B1 chain
partner: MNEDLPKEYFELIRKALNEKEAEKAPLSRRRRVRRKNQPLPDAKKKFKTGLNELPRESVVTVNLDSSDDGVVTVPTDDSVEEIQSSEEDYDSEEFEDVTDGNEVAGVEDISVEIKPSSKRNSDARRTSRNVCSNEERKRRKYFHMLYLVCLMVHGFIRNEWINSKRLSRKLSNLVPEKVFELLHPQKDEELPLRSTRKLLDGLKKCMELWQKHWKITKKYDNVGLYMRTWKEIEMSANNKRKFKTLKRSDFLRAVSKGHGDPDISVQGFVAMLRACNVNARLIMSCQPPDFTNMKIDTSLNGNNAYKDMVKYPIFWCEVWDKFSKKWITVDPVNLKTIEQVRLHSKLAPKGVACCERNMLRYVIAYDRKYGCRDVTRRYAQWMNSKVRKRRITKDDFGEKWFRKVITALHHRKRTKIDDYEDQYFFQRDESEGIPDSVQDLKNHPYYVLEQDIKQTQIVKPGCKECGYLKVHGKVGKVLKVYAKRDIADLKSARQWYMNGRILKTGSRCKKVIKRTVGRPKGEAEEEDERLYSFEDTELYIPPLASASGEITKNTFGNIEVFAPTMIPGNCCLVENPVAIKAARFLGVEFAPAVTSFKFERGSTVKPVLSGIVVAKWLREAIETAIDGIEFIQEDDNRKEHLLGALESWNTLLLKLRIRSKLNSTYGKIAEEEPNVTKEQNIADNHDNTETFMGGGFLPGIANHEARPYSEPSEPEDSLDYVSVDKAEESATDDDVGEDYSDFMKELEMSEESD

Variants of: B1
Conditions: with png1_yeast PNG1, Q02890

Variant | effect of a mutation on the interaction
L276Q | disrupting interaction strength
L183A;L392A | with no effect

Variants of: B2
Conditions: with rpn1_yeast RPN1, P38764

Variant | effect of a mutation on the interaction
L183A;L392A | with no effect
L276Q | with no effect

Variants of: B3
Conditions: with rad23_yeast RAD23, P32628

Variant | effect of a mutation on the interaction
H218Y | with no effect

Variants of: B4
Conditions: with ufd2_yeast UFD2, P54860

Variant | effect of a mutation on the interaction
L276Q | with no effect

Variants of: B5
Conditions: with rad4_yeast RAD4, P14736

Variant | effect of a mutation on the interaction
L276Q | with no effect
